Target: cyclin T1 (native 87 kDa protein of HeLa nuclear extract) (human)
Assay: GST-Tat bead pull-down from HeLa nuclear extract, SDS-PAGE, silver stain

cyclin T1 (native 87 kDa protein of HeLa nuclear extract) (human), sequence (chain, as listed by the source limits assumed): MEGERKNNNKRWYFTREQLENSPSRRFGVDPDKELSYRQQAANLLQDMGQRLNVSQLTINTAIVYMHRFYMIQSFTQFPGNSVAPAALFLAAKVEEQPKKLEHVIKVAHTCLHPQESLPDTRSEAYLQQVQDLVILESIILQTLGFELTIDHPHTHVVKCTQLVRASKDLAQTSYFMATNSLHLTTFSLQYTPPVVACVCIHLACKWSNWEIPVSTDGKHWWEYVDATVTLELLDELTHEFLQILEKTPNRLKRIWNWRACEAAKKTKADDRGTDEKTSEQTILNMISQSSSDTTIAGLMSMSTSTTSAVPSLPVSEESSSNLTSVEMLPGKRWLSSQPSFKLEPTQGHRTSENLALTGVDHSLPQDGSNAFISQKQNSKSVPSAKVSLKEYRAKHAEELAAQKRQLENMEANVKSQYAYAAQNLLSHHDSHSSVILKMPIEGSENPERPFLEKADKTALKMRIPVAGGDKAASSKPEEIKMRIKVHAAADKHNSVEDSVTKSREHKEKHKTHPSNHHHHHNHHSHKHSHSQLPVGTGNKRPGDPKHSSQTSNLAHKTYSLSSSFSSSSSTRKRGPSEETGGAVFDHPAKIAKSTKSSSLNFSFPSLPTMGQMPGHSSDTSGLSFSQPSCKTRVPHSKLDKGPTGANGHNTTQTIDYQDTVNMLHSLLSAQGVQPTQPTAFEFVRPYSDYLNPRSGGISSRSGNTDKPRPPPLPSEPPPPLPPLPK

## MEPVDPRLEPWKHPGSQPKTACTNCYCKKCCFHCQVCFITAALGISYG (other) [GST-Tat-1 K41A (aa 1-48)]
  binding result: no binding
